Usually EC50 stands for the midpoint of the concentration-response curve. A higher EC50 goes with weaker potency.

The target of experiment [1] is T1, CD300c antigen (11832-H08H, Sino Biological) (human, UniProt Q08708 21-183).
T1 construct: Bought antigen; also called CD300c protein; CD300 antigen-like family member C
T1 sequence (looked up): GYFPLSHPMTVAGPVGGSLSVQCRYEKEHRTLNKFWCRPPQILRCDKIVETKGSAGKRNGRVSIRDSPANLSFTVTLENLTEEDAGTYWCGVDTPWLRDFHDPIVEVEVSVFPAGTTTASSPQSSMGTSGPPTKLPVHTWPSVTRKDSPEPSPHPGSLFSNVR
Put plainly: selection ELISA of Example 1.2, scFv periplasmic extract on coated CD300c antigen. As for the experimental part:
In order to select anti-CD300c monoclonal antibodies specifically binding, with high binding affinity, to a CD300c antigen, ELISA was performed using the library pool obtained by the same method as in Example 1.1. More specifically, each of a CD300c antigen and a CD300a antigen in a coating buffer (0.1 M sodium carbonate, pH 9.0) was dispensed into an ELISA plate at a concentration of 5 μg/mL per well, followed by incubation at room temperature for 3 hours, to allow the antigen to bind to the plate. The unbound antigens were removed by washing three times using phosphate buffered saline-Tween 20 (PBST), and then 350 μL of PBST supplemented with 2% bovine serum albumin (BSA) was added to each well, followed by incubation at room temperature for 1 hour and then washing again using PBST. Then, 25 μg of a periplasmic extract containing scFv obtained by the same method as in Example 1.1 was added thereto, followed by incubation for 1 hour at room temperature for antigen binding. After 1 hour, the unbound scFv was removed by washing three times using PBST, and then 4 μg/mL of an antibody for detection was added, followed by incubation again at room temperature for 1 hour. Subsequently, the unbound antibodies for detection were removed using PBST, and then HRP-conjugated anti-rabbit IgG was added, followed by incubation at room temperature for 1 hour. The unbound antibodies were removed again using PBST. Subsequently, 3,3′,5,5′-tetramethylbenzidine (TMB) solution was added, followed by incubation for 10 minutes for development. Then, 2 N sulfuric acid solution was added to terminate the development reaction, and the absorbance was measured at 450 nm to identify the antibodies specifically binding to the CD300c antigen.
In general terms: ELISA stands for enzyme-linked immunosorbent assay.

Another experiment deals with T2, mouse CD300c (mouse).
T2 sequence (A2A7V7 whole entry, looked up): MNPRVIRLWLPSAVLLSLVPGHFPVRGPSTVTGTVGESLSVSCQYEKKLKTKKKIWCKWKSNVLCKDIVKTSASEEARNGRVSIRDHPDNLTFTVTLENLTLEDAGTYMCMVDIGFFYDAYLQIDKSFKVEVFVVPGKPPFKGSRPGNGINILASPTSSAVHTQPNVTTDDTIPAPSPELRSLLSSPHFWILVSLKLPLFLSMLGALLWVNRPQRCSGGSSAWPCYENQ
Put plainly: cell-based or functional assay.

The target of experiment [2] is T1, CD300c antigen (11832-H08H, Sino …). Put plainly: binding ELISA, plate coated with CD300c antigen (8 µg/mL), HRP anti-Fc IgG detection. How it is done:
In order to identify the antigen-binding ability of the anti-CD300c monoclonal antibodies produced in Example 1, binding ELISA was performed. Specifically, a CD300c antigen (11832-H08H, Sino Biological) or a CD300a antigen (12449-H08H, Sino Biological) in a coating buffer (0.1 M sodium carbonate, pH 9.0) was dispensed into an ELISA plate at a concentration of 8 μg/mL per well, followed by incubation at room temperature for 3 hours to allow the antigen to be bound to the plate. The unbound antigens were removed by washing three times using phosphate buffered saline-Tween 20 (PBST), and then 300 μL of PBST supplemented with 5% bovine serum albumin (BSA) was added to each well, followed by incubation at room temperature for 1 hour and then washing using PBST. Then, an anti-CD300c monoclonal antibody was diluted in quadruplicate and added thereto, followed by incubation for 1 hour at room temperature for antigen binding. After 1 hour, washing was performed three times using PBST to remove unbound anti-CD300c monoclonal antibody, and then 4 μg/mL of an antibody for detection (HRP conjugated anti-Fc IgG) was added, followed by incubation again at room temperature for 1 hour. Subsequently, the unbound antibody for detection was removed using PBST, and then TMB solution was added, followed by incubation for 10 minutes for development. Then, 2 N sulfuric acid solution was added to terminate the development reaction, and the absorbance was measured at 450 nm to identify the antibodies specifically binding to the CD300c antigen.

Numbering of substitutions follows the chain as printed.

B1: CB301_OPALTL_B5 (antibody, V domains shown)
VH: EVQLLESGGGLVQPGGSLRLSCAASGFTFSHYAMSWVRQAPGKGLEWVSAISGSGGSTYYADSVKGRFTISRDNSKNTLYLQMNSLRAEDTAVYYCARGWDSPTLTYFDSWGQGTLVTVSS
VL: QSVLTQPPSASGTPGQRVTISCSGTSSNIGNNDVSWYQQLPGTAPKLLIYQDTKRPSGVPDRFSGSKSGTSASLAISGLRSEDEADYYCAAWDDSLSGPVFGGGTKLTVL
B1: the binding result in experiment [1] is listed as “binds”.

B2: CL10 (antibody, V domains shown)
VH: EVQLLESGGGLVQPGGSLRLSCAASGFTFSSYGMHWVRQAPGKGLEWVSAISGSGGSTYYADSVKGRFTISRDNSKNTLYLQMNSLRAEDTAVYYCASGYGLMDVWGQGTLVTVSS
VL: QSVLTQPPSASGTPGQRVTISCTRSSGIIASNYVQWYQQLPGTAPKLLIYRNNQRPSGVPDRFSGSKSGTSASLAISGLRSEDEADYYCSSYAGNNNLVFGGGTKLTVL
notes: also called anti-CD300c monoclonal antibody CL10; CB301 antibody CL10
B2: the “cancer cell proliferation inhibitory effect, CT26 mouse colon cancer cells, 10 ug/mL antibody, 5 days, CCK-8” value in the experiment with mouse CD300c came out at 15%. Also, a half-maximal effect in experiment [2] (EC50) was put at 0.039 µg/mL.

B3: CB301_OPALTL_E6 (antibody, V domains shown)
VH: B2 VH with S57Y, S98R, G99W, Y100H, G101Y, L102S, M103F, V105Y
VL: QSVLTQPPSASGTPGQRVTISCSGSSSNIGNNYVSWYQQLPGTAPKLLIYRNNQRPSGVPDRFSGSKSGTSASLAISGLRSEDEADYYCQSYDNSNVLFGGGTKLTVL
On to B3, for which the binding result in experiment [1] is on record as “binds”.

B4: CB301_H3L1_F4 (antibody, V domains shown)
VH: EVQLLESGGGLVQPGGSLRLSCAASGFTFSGYAMSWVRQAPGKGLEWVSAISGSGGSTYYADSVKGRFTISRDNSKNTLYLQMNSLRAEDTAVYYCARSPSGLFDYWGQGTLVTVSS
VL: QSVLTQPPSASGTPGQRVTISCGGNNIGSKRVHWYQQLPGTAPKLLIYNTSNKHSGVPDRFSGSKSGTSASLAISGLRSEDEADYYCSSYLQQHSLFGGGTKLTVL
With B4, in experiment [1], the binding result is “binds”.

B5: SL18 (antibody, V domains shown)
VH: RVQLLESGGGLVQPGGSLRLSCAASGFTFSDYHMHWVRQAPGKGLEWVSTISSSGGYTYYAESVKSRFTISRDNSKNTLYLQMNSLRAEDTAVYYCARSIRLPLDYWGQGTLVTVSS
VL: QSVLTQPPSASGTPGQRVTISCSGNNIGSKGVHWYQQLPGTAPKLLIYEDSKRPSGVRDRFSGSKSGTSASLAISGLRSEDEADYYCQSYDSTKGVVFGGGTKLTVL
notes: also called anti-CD300c monoclonal antibody SL18; CB301 antibody SL18
On to B5, for which the “cancer cell proliferation inhibitory effect, CT26 mouse colon cancer cells, 10 ug/mL antibody, 5 days, CCK-8” value in the experiment with mouse CD300c is 38%. The molecule also had an EC50 in experiment [2] of 0.17 µg/mL.
